Measured values: PMC11708914

Key:
[1] = target: ZIKV HA-NS5 (full-length Zika virus NS5 fused to an HA-tag in its N-terminus) (Zika virus); assay: co-IP; anti-HA agarose beads; lysates of transfected 293 T cells (lysis buffer with protease inhibitors and benzonase), overnight at 4 °C; UBA1 detected by Western blot
[2] = target: USUV HA-NS5 (HA-tagged Usutu virus NS5) (Usutu virus) (UniProt Q5WPU5); assay: as above
[3] = target: WNV HA-NS5 (HA-tagged West Nile virus NS5) (West Nile virus) (UniProt P06935); assay: as above
Sequence of UniProt P06935 (P06935 2526-3430): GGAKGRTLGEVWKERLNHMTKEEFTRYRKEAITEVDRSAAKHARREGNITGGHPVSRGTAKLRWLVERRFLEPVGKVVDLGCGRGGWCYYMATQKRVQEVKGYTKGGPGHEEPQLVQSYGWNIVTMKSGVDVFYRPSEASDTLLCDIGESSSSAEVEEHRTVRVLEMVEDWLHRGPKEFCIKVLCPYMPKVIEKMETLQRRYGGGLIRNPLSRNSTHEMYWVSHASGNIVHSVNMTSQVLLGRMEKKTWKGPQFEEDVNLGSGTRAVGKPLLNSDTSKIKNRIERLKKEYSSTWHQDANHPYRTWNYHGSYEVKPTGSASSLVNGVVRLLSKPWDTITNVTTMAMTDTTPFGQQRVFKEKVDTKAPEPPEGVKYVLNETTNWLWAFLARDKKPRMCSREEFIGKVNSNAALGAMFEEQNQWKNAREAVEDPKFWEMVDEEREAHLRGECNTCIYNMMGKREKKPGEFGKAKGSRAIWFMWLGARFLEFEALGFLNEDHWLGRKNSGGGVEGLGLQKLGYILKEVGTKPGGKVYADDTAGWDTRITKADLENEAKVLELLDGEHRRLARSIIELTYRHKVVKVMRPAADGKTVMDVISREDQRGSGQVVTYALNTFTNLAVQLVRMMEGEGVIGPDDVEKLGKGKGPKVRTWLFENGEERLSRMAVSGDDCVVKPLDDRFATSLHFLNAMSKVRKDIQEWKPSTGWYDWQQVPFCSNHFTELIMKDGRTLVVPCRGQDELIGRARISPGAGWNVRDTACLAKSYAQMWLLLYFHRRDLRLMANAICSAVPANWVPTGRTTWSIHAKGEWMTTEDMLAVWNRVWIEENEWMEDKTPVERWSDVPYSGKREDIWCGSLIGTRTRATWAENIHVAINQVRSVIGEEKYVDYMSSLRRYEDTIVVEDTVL

[4] = target: Recombinant His-tagged ZIKV NS5 (Zika virus); assay: pull-down; Ni-NTA agarose resin; 3 mg of whole-cell protein from 293 T cells incubated with 90 µg of recombinant His-tagged bait (BSA as control); UBA1 detected by Western blot

Sequence of UniProt Q5WPU5 (Q5WPU5 2530-3434): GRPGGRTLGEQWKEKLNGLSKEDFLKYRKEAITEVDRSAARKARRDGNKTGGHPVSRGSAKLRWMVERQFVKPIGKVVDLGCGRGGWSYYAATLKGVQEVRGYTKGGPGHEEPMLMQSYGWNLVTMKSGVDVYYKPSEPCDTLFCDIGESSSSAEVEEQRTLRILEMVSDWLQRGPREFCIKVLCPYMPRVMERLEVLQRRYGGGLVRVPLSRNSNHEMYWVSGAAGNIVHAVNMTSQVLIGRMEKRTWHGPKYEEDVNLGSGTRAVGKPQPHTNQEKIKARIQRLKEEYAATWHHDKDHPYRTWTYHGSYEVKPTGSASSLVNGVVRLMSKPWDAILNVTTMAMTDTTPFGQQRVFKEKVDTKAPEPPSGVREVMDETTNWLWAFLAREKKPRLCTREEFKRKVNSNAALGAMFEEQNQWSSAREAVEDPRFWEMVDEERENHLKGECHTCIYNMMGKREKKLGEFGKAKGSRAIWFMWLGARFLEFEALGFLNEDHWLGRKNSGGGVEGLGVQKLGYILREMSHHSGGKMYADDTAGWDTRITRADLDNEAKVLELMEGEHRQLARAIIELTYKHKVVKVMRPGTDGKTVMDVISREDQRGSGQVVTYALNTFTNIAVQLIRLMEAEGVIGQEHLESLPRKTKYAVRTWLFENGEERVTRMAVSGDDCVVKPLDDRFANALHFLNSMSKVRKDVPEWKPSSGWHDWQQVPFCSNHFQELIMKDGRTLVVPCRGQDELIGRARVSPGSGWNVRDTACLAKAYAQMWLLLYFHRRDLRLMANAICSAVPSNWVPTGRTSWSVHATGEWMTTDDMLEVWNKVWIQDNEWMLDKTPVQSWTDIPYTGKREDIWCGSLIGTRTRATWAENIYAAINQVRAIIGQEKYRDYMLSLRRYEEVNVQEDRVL

“Ubiquitin-like modifier-activating enzyme 1 (UBA1), endogenous” was tested. Which fold enrichment over controls (empty vector or EYFP) [1] did it give?
The fold enrichment over controls (empty vector or EYFP) was over 100 fold.

What about the fold enrichment over controls [2] of the same substance?
Its fold enrichment over controls is over 100 fold.

What about the fold enrichment over controls [3] of the same substance?
The fold enrichment over controls was over 100 fold.

And the amount of UBA1 relative to controls [4]?
The amount of UBA1 relative to controls was over 4 times.
